Consider 31 sequences from the supplement of paper PMC9170038.

For the data set, the system named is MS2 coat protein. The data set can be described thus: apparent KD of MS2 coat protein; designed switch direction (-1 OFF switch, 1 ON switch): -1; higher = weaker reporter binding. Put shortly:
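RNA switches sharing common flanks were transcribed by stalled E. coli RNA polymerase on Illumina chips. A doubling series of SNAP-549-labelled MS2 coat protein, from 0.7 or 1.5 nM to 3 µM, was applied in Tris-HCl pH 7.5 buffer with KCl, MgCl2, BSA, DTT, tRNA and Tween-20. Each step lasted 0.8–1.5 h at the bottom of the series and 10–20 min at the top. Normalised cluster fluorescence was curve-fitted, giving apparent KD as the per-design median over clusters.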

The mark [1] stands for this setting: Eterna round: R95, input ligand: microRNA oligo, concentration not stated.
The mark [2] stands for this setting: input ligand: microRNA oligo, concentration not stated.
Setting [3] is: Eterna round: R95, input ligand: FMN 200 uM.
The mark [4] stands for this setting: Eterna round: R95, input ligand: none.

“ACAGCGUGAGGAUAUACAUGAGGAUCACCCAUGUAUGGCAGGUUAUCCUGUCGUAUGUGUAGAAGGCACGCUGU [Exclusion 3 - Oddities v.3 ( A small slide from ms2 to fmn)] (puzzle: Exclusion 3)”: the “apparent KD of MS2 coat protein” value under setting [1] stood at 50.8 nM.

With “CGGUGUAGAGGAUAUACGUGAAUAUUAUUAGAUAAUAAUUUACAUGAGGAUCACCCAUGUAGAAGGCUAUAGCG [JR_Ex2_Sub083] (Eterna round: R97, puzzle: Exclusion 2)”, the “apparent KD of MS2 coat protein” value is, setting by setting: (input ligand: FMN 200 uM) 24.9 nM; (input ligand: none) 20.1 nM.

“CAUAUAGUAGUGAGGAUAUGCGAAUAUAUAAUUAAGUAGAAGGCACAUGAGGAUCACCCAUGUAUAUUGUAAAG [EX-4 Malc] (puzzle: Brourd's mod of Exclusion 4)”: the “apparent KD of MS2 coat protein” value under setting [1] is 18.9 nM.

As to “AUAAAGCGAGGAUAUACAUGAGGAUCACCCAUGUGGCAGCCAGGUAGGAGUGACGUCGGUAGAAGGCGCACCCU [Quleraer] (puzzle: Exclusion 3)”, the “apparent KD of MS2 coat protein” value under setting [1] is 24.2 nM.

With “UUUUACCAAGGAUAUACAUUUUUUUUAUUAUUUUCAUUAUAACAUGAGGAUCACCCAUGUAGAAGGUGGAUUUU [My Design] (puzzle: Exclusion 2)”, under setting [1], the “apparent KD of MS2 coat protein” value is 59.6 nM.

Consider “AUUAGCGUAGGAUAUUGAAACAUGUACAUGAGGAUCACCCAUGUGAGGUGAGUCUUCGUUUAAGAAGGGCGCAGAA [EX5 #40] (Eterna round: R97, puzzle: Exclusion 5)”, for which the “apparent KD of MS2 coat protein” value runs as follows: (input ligand: FMN 200 uM) 213 nM; (input ligand: none) 1030 nM.

Consider “CAUGUCCAACGAGGAUAUGGUAAAGGAAGUGUACCAGAAGGCGUGCGGACAUGAGGAUCACCCAUGUCGCGCGGUGCGAUGUGG [MOD3 Nando EXNG 1.1] (Eterna round: R96, puzzle: Exclusion NG 1)”, for which the “apparent KD of MS2 coat protein” value (input ligand: FMN 200 uM) came out at 37.2 nM, the “apparent KD of MS2 coat protein” value under setting [2] was found to be 15.8 nM and the “apparent KD of MS2 coat protein” value (input ligand: none) came out at 29.3 nM.

In the case of “ACAAGCUUUUUGCUCGUCUACAUGAGGAUCACCCAUGUAGUGUGUUAGUGGUGAAGAUAGAUUGAGCGUAGUAGGUA [JR_SV3TOV1_Sub072] (puzzle: Sensor v3, turn-off variant 1)”, the “apparent KD of MS2 coat protein” value under setting [3] was found to be 102 nM, the “apparent KD of MS2 coat protein” value under setting [1] turned out to be 79.5 nM and the “apparent KD of MS2 coat protein” value under setting [4] was 109 nM.

Turning to “GUUAUCGCAGGAUAUUAGUACUUGUACAUGAGGAUCACCCAUGUUUAUUGGGUCUAAGAAUAAGAAGGGCGAUGAA [JR_Ex5_Sub005] (Eterna round: R97, puzzle: Exclusion 5)”, the “apparent KD of MS2 coat protein” value (input ligand: FMN 200 uM) came to 105 nM and the “apparent KD of MS2 coat protein” value (input ligand: none) was 32 nM.

On to “AAAUGCAAGCAAAGAUCUUACAUGAGGAUCACCCAUGUGCUCGUCUUAUAAAGUACUAUCACGAAAGUGAUAGUACA [Sensor 3, v1 - 28] (puzzle: Sensor v3, turn-off variant 1)”, for which the “apparent KD of MS2 coat protein” value was 25.9 nM under setting [3], 90.9 nM under setting [1] and 18.1 nM under setting [4].

Take “UUGUUGUAUGUAGGAUAUGCGUAUUAUUAUUGGGCAGAAGGACAUGAGGAUCACCCAUGUAUGUUGUUGUUAUAUAUUAUAUAU [Title] (Eterna round: R96, puzzle: Exclusion NG 1)”: the “apparent KD of MS2 coat protein” value came to 66.4 nM (input ligand: FMN 200 uM), 35.8 nM under setting [2] and 47.8 nM (input ligand: none).

For the sequence “UAGGUGUGAGGAUAUGGUAAAGAUAAGAUGAUGAAAGAACUCCAGAAGGCACAUGAGGAUCACCCAUGUAGAAG [Mat - Exclusion 4 - Mod of JL - D30] (puzzle: Exclusion 4)”, the “apparent KD of MS2 coat protein” value reads like this: under setting [3], 27.9 nM; under setting [1], 22.8 nM; under setting [4], 24.7 nM.

Take “GGUUGGCGAGGAUAUACAUGAGGAUCACCCAUGUGAGAGGAAAAAGUGAGGAAGAAAAGUAGAAGGCGCUGACG [salish99_ex3_r3_002] (puzzle: Exclusion 3)”: the “apparent KD of MS2 coat protein” value came out at 142 nM under setting [3], 60.8 nM under setting [1] and 56.7 nM under setting [4].

For the sequence “CCAGCGUAUGUGAGGAUAUGCUGGUCCUUGGAUCAGCAGAAGGCACAUGAGGAUCACCCAUGUGGAGACGUUGG [JL bmx4 3.42] (puzzle: Brourd's mod of Exclusion 4)”, the “apparent KD of MS2 coat protein” value under setting [1] is 18 nM.

For the sequence “GGCAUCGGAGGAUAUAUUUAUGGUGAUACCCGAAGCUUUCUACUUGAGGAUCACCCAAGUAGAAGGCCGAUGCC [jl-ex2.4.82 ViennaUCT mod] (Eterna round: R97, puzzle: Exclusion 2)”, the “apparent KD of MS2 coat protein” value (input ligand: FMN 200 uM) came out at 17.4 nM and the “apparent KD of MS2 coat protein” value (input ligand: none) was 10.9 nM.

Take “UAGUACAGAGGAUAUACAUGAGGAUCACCCAUGUGUUUCAGCUAGGAGACUAGCGAAAGUAGAAGGCUGUACUG [salish99_ex3_r4_010] (Eterna round: R97, puzzle: Exclusion 3)”: the “apparent KD of MS2 coat protein” value stood at 26.2 nM (input ligand: FMN 200 uM) and 11.4 nM (input ligand: none).

Turning to “AUCAUGUCAGGAUAUAUGACAUGGCUCUUCGGAGCAAGAUCAUAGAAGGGACAUGAGGAUCACCCAUGUAGAUC [Ex4-3: 23] (puzzle: Exclusion 4)”, the “apparent KD of MS2 coat protein” value by setting is: under setting [3], 41.9 nM; under setting [1], 195 nM; under setting [4], 188 nM.

Consider “CUAGCGAAUGUAGGAUAUCGGACUGUUUCAGUCUGAGAAGGACAUGAGGAUCACCCAUGUGAAGCUACGUGAGUAGCACGCUAG [JL ENG1 3.86] (Eterna round: R96, puzzle: Exclusion NG 1)”, for which the “apparent KD of MS2 coat protein” value reads like this: (input ligand: FMN 200 uM) 111 nM; under setting [2], 18.7 nM; (input ligand: none) 23.2 nM.

Take “AAUUCACAUGAGGAUCACCCAUGUCAGGAUAUGGUUUCACGUUUUUCUUUUCUUGAGGCCAGAAGGGACAGCUA (puzzle: Exclusion 1)”: the “apparent KD of MS2 coat protein” value under setting [1] turned out to be 60.1 nM.

Turning to “UAGACCUCGUCAGGAUAUCCAGGUUCUUCGCCCGGAGAAGGGACAUGAGGAUCACCCAUGUAGGAGAGCAUCGCUGUCGAGCAA [Redixeri] (Eterna round: R96, puzzle: Exclusion NG 1)”, the “apparent KD of MS2 coat protein” value is 19.3 nM (input ligand: FMN 200 uM), 11.5 nM under setting [2] and 18.3 nM (input ligand: none).

As for “CGGGCCCAGGCAGGAUAUGUACAGCCACAAAACCCUCGUGUGAGGGACAUGAGGAUCACCCAUGUAUAGAAGGGCCAGCGCGUA [Xeditein] (Eterna round: R96, puzzle: Exclusion NG 2)”, the “apparent KD of MS2 coat protein” value (input ligand: FMN 200 uM) turned out to be 26.3 nM, the “apparent KD of MS2 coat protein” value under setting [2] was found to be 14 nM and the “apparent KD of MS2 coat protein” value (input ligand: none) was 22 nM.

Regarding “CGUUGAAUAGGAUAUACAUGAGGAUCACCCAUGUGAAAUUAUAGUGAGGAAAUGAAAAGUAGAAGGGUUUGACA [Mod of Mat 8 - Jieux - Exclusion 3] (Eterna round: R97, puzzle: Exclusion 3)”, the “apparent KD of MS2 coat protein” value runs as follows: (input ligand: FMN 200 uM) 27.6 nM; (input ligand: none) 30.4 nM.

In the case of “AAUUUCAUUGUGAGGAUAUGCCCAAAUAAAAGCGGGCAGAAGGCACAUGAGGAUCACCCAUGUCCUGCGGUUAU [salish99_bmx4_r4_152] (Eterna round: R97, puzzle: Brourd's mod of Exclusion 4)”, the “apparent KD of MS2 coat protein” value is, setting by setting: (input ligand: FMN 200 uM) 471 nM; (input ligand: none) 37.5 nM.

As for “GCUCGCGGGCAAGGAUAUCCUACGCUGUUCUGGCCCGUGUCUGUUACAUGAGGAUCACCCAUGUGGGAGAAGGUGCACCAGGGC [Design 46] (Eterna round: R96, puzzle: Exclusion NG 2)”, the “apparent KD of MS2 coat protein” value worked out at 19.7 nM (input ligand: FMN 200 uM), 11.9 nM under setting [2] and 19.1 nM (input ligand: none).

“ACAUGAGGAUCACCCAUGUCCGGCUGGUCUGUCUCGGCUGUCGAGGAUAUAGCACGGUAUCCGCGCUAGAAGGCGGGAGCCGGG [Aenatbe mod 88] (Eterna round: R96, puzzle: Exclusion NG 3)”: the “apparent KD of MS2 coat protein” value came to 237 nM (input ligand: FMN 200 uM), 127 nM under setting [2] and 193 nM (input ligand: none).

Take “GCGCAAACGCCAAAAGGCGAAACAACAUGAGGAUCACCCAUGUAGGAUAUCGAUUGCUUUGCAGUCGAGAAGGACAAAAUGCGC [JL ENG3 3.80 Mod 6] (Eterna round: R96, puzzle: Exclusion NG 3)”: the “apparent KD of MS2 coat protein” value is 11.6 nM (input ligand: FMN 200 uM), 10.6 nM under setting [2] and 15.7 nM (input ligand: none).

“GCCACCACAUGAGGAUCAAACAUGAGGAUCACCCAUGUAUAACAAGCUUUUUGCUCGUCUUAUAAAUAUGUGGUGGC [Electric Eye 4 - Jieux - Sensor, turn-off variant 1] (Eterna round: R97, puzzle: Sensor, turn-off variant 1)”: the “apparent KD of MS2 coat protein” value is 14 nM (input ligand: FMN 200 uM) and 15.3 nM (input ligand: none).

With “UAACAGCGAGGAUAUACAUGAGGAUCACCCAUGUACGGGUCCGGGUUUUCGUCCAAAAGUAGAAGGCGCAAUAA [Laongeedte] (puzzle: Exclusion 3)”, the “apparent KD of MS2 coat protein” value under setting [3] was found to be 177 nM, the “apparent KD of MS2 coat protein” value under setting [1] amounted to 38.4 nM and the “apparent KD of MS2 coat protein” value under setting [4] turned out to be 41.4 nM.

With “AGCUGAGCAGGAUAUACAUGAGGAUCACCCAUGUUGGUCAAGCGACGAUAGUCGCAAUGUAGAAGGGCUCAGCU [E3/8-D2] (Eterna round: R97, puzzle: Exclusion 3)”, the “apparent KD of MS2 coat protein” value was 114 nM (input ligand: FMN 200 uM) and 357 nM (input ligand: none).

Regarding “GGAUCGAAUGUGAGGAUAUGCUGGUCCUUGGAUCAGCAGAAGGCACAUGAGGAUCACCCAUGUGAUCAAGAUCC [Eli bmx4 4.77] (Eterna round: R97, puzzle: Brourd's mod of Exclusion 4)”, the “apparent KD of MS2 coat protein” value is, setting by setting: (input ligand: FMN 200 uM) 58.3 nM; (input ligand: none) 910 nM.

In the case of “GCAGGAUAAGUGAGGAUAUACCUCUGGAUACAGAGGUAGAAGGCACAUGAGGAUCACCCAUGUCUAUAACCUGC [Fiskers BMX 4 - 79] (puzzle: Brourd's mod of Exclusion 4)”, the “apparent KD of MS2 coat protein” value under setting [1] stood at 12.5 nM.
